This passage reports production of TNF-α in response to LPS and LPS plus galectin-9, TIM-3-/- DCs relative to wild type DCs results from patent US20100061992A1.

This test deals with mouse TIM-3 on cells (splenic dendritic cells, D2SC1 dendritic cell line, TIM-3+ Th1 T cells) (mouse) (UniProt Q8VIM0). In words: cell-based or functional assay.
Chain of UniProt Q8VIM0 (Q8VIM0 other isoform, or with tags, fused parts or gaps limits assumed): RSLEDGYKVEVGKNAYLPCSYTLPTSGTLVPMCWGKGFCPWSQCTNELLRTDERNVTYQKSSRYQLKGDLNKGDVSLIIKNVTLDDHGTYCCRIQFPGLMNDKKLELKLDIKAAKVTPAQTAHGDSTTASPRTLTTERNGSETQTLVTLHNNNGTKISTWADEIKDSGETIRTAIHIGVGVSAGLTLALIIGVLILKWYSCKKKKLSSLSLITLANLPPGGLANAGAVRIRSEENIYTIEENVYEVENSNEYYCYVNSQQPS

For “recombinant human galectin-9 (from UniProt O00182 1-355) (ligand)”, the production of TNF-α in response to LPS and LPS plus galectin-9, TIM-3-/- DCs relative to wild type DCs lay within 30 to 40%.
